Reference: article doi:10.1101/2021.04.27.441718

T1: RbpB (Bacteroides thetaiotaomicron VPI-5482, UniProt Q8A6J4 1-100)
T1 sequence: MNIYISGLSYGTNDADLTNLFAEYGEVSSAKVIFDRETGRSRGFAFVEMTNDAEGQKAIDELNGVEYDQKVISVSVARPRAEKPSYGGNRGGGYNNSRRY


What was measured:
RbpB [1] = molecular target: T1, RbpB; assay: EMSA
RbpB [2] = molecular target: T1, RbpB; assay: EMSA; remark: listed apart in the source

Binder | Kd (RbpB [1]) | binding result (RbpB [2])
GUAGGAUAGUAGGAUAGUAGGAUA (ssRNA) [Motif 1 x3] | 5.1 µM | 
UCCUGUGCUCCUGUGCUCCUGUGC (ssRNA) [Motif 9 x3] |  | no binding
